Laboratory results published in US20250066745A1, “MUTANTS AND USE THEREOF” (BGI SHENZHEN, priority 2021, published 2025).
Where a chain is given by its changes, count along the chain named. Names may count otherwise.

B1: F26R N27D V29C A30G V31L A32D S33V A36V T37S: Gaussia luciferase mutant (protein)
chain: MGVKVLFALICIAVAEAKPTENNEDRDICGLDVNFVSTDLDADRGKLPGKKLPLEVLKEMEANARKAGCTRGCLICLSHIKCTPKMKKFIPGRCHTYEGDKESAQGGIGEAIVDIPEIPGFKDLEPMEQFIAQVDLCVDCTTGCLKGLANVQCSDLLKKWLPQRCATFASKIQGQVDKIKGAGGD
modifications: SIGNAL (1)..(17)
notes: Gaussia luciferase mutant
B2: F26R V29D A30G A32D A36I T37A L40R: Gaussia luciferase mutant (protein)
chain: B1 chain with D27N, C29D, L31V, V33S, V36I, S37A, L40R
modifications: SIGNAL (1)..(17)
notes: Gaussia luciferase mutant
B3: F26R V29F A30D V31L S33G T37D L40A: Gaussia luciferase mutant (protein)
chain: B1 chain with D27N, C29F, G30D, D32A, V33G, V36A, S37D, L40A
modifications: SIGNAL (1)..(17)
notes: Gaussia luciferase mutant
B4: F26R V29R A30V V31L S33G A36V T37R: Gaussia luciferase mutant (protein)
chain: B1 chain with D27N, C29R, G30V, D32A, V33G, S37R
modifications: SIGNAL (1)..(17)
notes: Gaussia luciferase mutant
B5: F26S V29L A30G S33R T37K L40A: Gaussia luciferase mutant (protein)
chain: B1 chain with R26S, D27N, C29L, L31V, D32A, V33R, V36A, S37K, L40A
modifications: SIGNAL (1)..(17)
notes: Gaussia luciferase mutant
B6: F26T N27N V29E V31I A32G S33V A36R T37G L40G: Gaussia luciferase mutant (protein)
chain: B1 chain with R26T, D27N, C29E, G30A, L31I, D32G, V36R, S37G, L40G
modifications: SIGNAL (1)..(17)
notes: Gaussia luciferase mutant
B7: K66N H79K P84L S103T E110A D123N L124M E128G V138E: Gaussia luciferase mutant (protein)
chain: MGVKVLFALICIAVAEAKPTENNEDFNIVAVASNFATTDLDADRGKLPGKKLPLEVLKEMEANARNAGCTRGCLICLSKIKCTLKMKKFIPGRCHTYEGDKETAQGGIGAAIVDIPEIPGFKNMEPMGQFIAQVDLCEDCTTGCLKGLANVQCSDLLKKWLPQRCATFASKIQGQVDKIKGAGGD
modifications: SIGNAL (1)..(17)
notes: Gaussia luciferase mutant
B8: K66N P84L E102K E110P D123N: Gaussia luciferase mutant (protein)
chain: B7 chain with K79H, E102K, T103S, A110P, M124L, G128E, E138V
modifications: SIGNAL (1)..(17)
notes: Gaussia luciferase mutant
B9: K66R E102D E110P V138D: Gaussia luciferase mutant (protein)
chain: B7 chain with N66R, K79H, L84P, E102D, T103S, A110P, N123D, M124L, G128E, E138D
modifications: SIGNAL (1)..(17)
notes: Gaussia luciferase mutant

assay: Luminescence activity assay of purified Gaussia luciferase mutants on coelenterazine; format: biochemical; set-up: key to Activity of mutant relative to wild-type Gaussia luciferase without the signal peptide: ratio of mutant luminescence intensity to wild-type Gaussia luciferase; settings: Substrate CTZ (Table 16)
Description: (§1) In this Example, the protein concentration was determined with a BCA quantitative kit (Thermo Scientific™ Pierce™ BCA Protein Assay Kit) accurately. The purified luciferase obtained in Example 5 was diluted with diluent (50 mM Tris-HCl, pH 8.0, 100 mM NaCl, 0.1% (v/v) Tween-20) to 1 μg/mL. The diluted luciferase, taken for 10 μL, was moved into a black 96-well plate, then added with 90 μL of the substrates coelenterazine, fluoro-coelenterazine or coelenterazine derivative ZS2 (purchased from Biolab) which was diluted into 100 μM with the same diluent, and the luminescence intensity of the plate was read with a self-luminescence module of a microplate reader. The mutation site of the mutant, the measured luminescence intensity, the ratio of luminescence intensities of the advantageous mutants to the wild-type Gaussia luciferase without the signal peptide having the sequence shown in SEQ ID NO: 3 are shown in Table 15. The results of catalytic activity assay of the advantageous mutants relative to the wild-type Gaussia luciferase without the signal peptide having the sequence shown in SEQ ID NO: 3 on substrate coelenterazine are shown in FIG. 6. […] The results of catalytic activity assay of the advantageous mutants relative to the wild-type Gaussia luciferase without the signal peptide having the sequence shown in SEQ ID NO: 3 on substrate fluoro-coelenterazine are shown in FIG. 7.
(§2) The new mutant library constructed in Example 7 was screened and tested for substrate specificity. Expression and purification schemes were the same as that in Example 5, and the activity assay scheme was the same as that in Example 6. The respective catalytic activities of combinatorial mutants on coelenterazine, fluoro-coelenterazine or coelenterazine derivative ZS2, and coelenterazine derivative ZS26 (purchased from BIOLAB) were assayed, and comparisons among the substrate specificities of the combinatorial mutants were based on the ratios of catalytic activities on two corresponding substrates.

**Q.** Which “Activity of mutant relative to wild-type Gaussia luciferase without the signal peptide” value does the source give for B1 here?
**A.** 1.308

**Q.** With B2 as the molecule, how does the “Activity of mutant relative to wild-type Gaussia luciferase without the signal peptide” value read?
**A.** 0.453

**Q.** Which “Activity of mutant relative to wild-type Gaussia luciferase without the signal peptide” value does the source give for B3 here?
**A.** 1.017

**Q.** Which “Activity of mutant relative to wild-type Gaussia luciferase without the signal peptide” value does the source give for B4 here?
**A.** 0.423

**Q.** For B5, which “Activity of mutant relative to wild-type Gaussia luciferase without the signal peptide” value is on record?
**A.** 1.067

**Q.** With B6 as the molecule, how does the “Activity of mutant relative to wild-type Gaussia luciferase without the signal peptide” value read?
**A.** 0.940

**Q.** For B7, which “Activity of mutant relative to wild-type Gaussia luciferase without the signal peptide” value is on record?
**A.** 1.111

**Q.** With B8 as the molecule, how does the “Activity of mutant relative to wild-type Gaussia luciferase without the signal peptide” value read?
**A.** 0.172

**Q.** For B9, which “Activity of mutant relative to wild-type Gaussia luciferase without the signal peptide” value is on record?
**A.** 0.674

assay: Luminescence activity assay of purified Gaussia luciferase mutants on coelenterazine derivative ZS2; format: biochemical; set-up: key to Activity of mutant relative to wild-type Gaussia luciferase without the signal peptide: ratio of mutant luminescence intensity to wild-type Gaussia luciferase; settings: Substrate ZS2 (Table 16)
Description: as §1, §2

**Q.** With B1 as the molecule, how does the “Activity of mutant relative to wild-type Gaussia luciferase without the signal peptide” value read?
**A.** 0.128

**Q.** With B2 as the molecule, how does the “Activity of mutant relative to wild-type Gaussia luciferase without the signal peptide” value read?
**A.** 2.460

**Q.** For B3, which “Activity of mutant relative to wild-type Gaussia luciferase without the signal peptide” value is on record?
**A.** 1.781

**Q.** With B4 as the molecule, how does the “Activity of mutant relative to wild-type Gaussia luciferase without the signal peptide” value read?
**A.** 0.115

**Q.** Which “Activity of mutant relative to wild-type Gaussia luciferase without the signal peptide” value does the source give for B5 here?
**A.** 0.787

**Q.** With B6 as the molecule, how does the “Activity of mutant relative to wild-type Gaussia luciferase without the signal peptide” value read?
**A.** 1.995

**Q.** For B7, which “Activity of mutant relative to wild-type Gaussia luciferase without the signal peptide” value is on record?
**A.** 1.709

**Q.** With B8 as the molecule, how does the “Activity of mutant relative to wild-type Gaussia luciferase without the signal peptide” value read?
**A.** 0.112

**Q.** With B9 as the molecule, how does the “Activity of mutant relative to wild-type Gaussia luciferase without the signal peptide” value read?
**A.** 1.560
